Assay: protease stability score; higher = more stable; yeast display proteolysis, trypsin and chymotrypsin;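 note: relative to predicted unfolded state with 0 unfolded-like and 1 meaning tenfold more protease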

Sequence	protease stability score
DEDEEHARHMLEIFMHAVITGDEDTLKELVDPNVKLVVNGREFHGWEEYLKVHRHWRMRDAHIKHVEVQGEKVIVDTRLHGRVDGKLTDFRTEIIVRKINGRWHLESERVH	2.13
TEEEEILREAYELFFKMMKTGDEHMKSRLADPNVRLHIGDKENHGMDEVIRVFREEHKRYKNLTLRHWHLEDSHVVNGRIILHYKMNVEVNGVEIETSVHVVIRKINGKWELESLSVE	0.882
SEEEEMVKRLVEIIARMLETGDEDTLLELLDPEPRIEIGDKRFHGWEEFHKEEHKRLREMRVNSTHIEDVKVYNGRARIHLRIDGSIDGRRIEMRSHFIVQKINGRWSITSVIIR	1.52
NEKEELLRKIMDMLIRHWETGDFEKLMELADPNVRLHYEQGDKEHHHHGREDVAKFIEELLRMLGVDHWHLEKIEIVGEKLHLHGRIHVNGRTIDLRIHWVVVNGVLKSVRIILG	1.14
SEEKKHVEEVARHILHLFLTGDEELWSNMADPNMRYLWNGREIVGRDLVREQNKELRTHSIEITHIEVFDGRARVRVNVDYQIGDKRINTHSLVIIVIINGRIESVFIKHD	1.27
DEEDMDEVEKAIRKNDPEKMRDLADENAKASVGDNQFHGRDNVENFMKHLTDHADHVQVDSVEKHNGRVVVNAQLDINGEQIQIVIRIDVHNGKIKRFSIEVRDEEAHHFMREMVS	0.686
TELDKHVEDLLHRFIEALHTGNWEQLEHLVDPDARFDVDGRIHHGREWLLTHMTRIKNARIEFHHIEIYGDYISMRVIIHVNGQTRDFHLELITFNGRIKEVRIWHI	2.34
DEKDRLSEELAKHLYRMMYTGDWERIFKMADPHVRLVIGDKEFHGRENFEETLRDHLEKIKNATMRLDDIELQGDKVHIFFTIHVNGREVEVEVHIRVIDGRIHHVDVQVRWV	1.49
SEDERDARTMTEEITHIIETGDEHRFQELADPNMRLEQGEYHRHGREQVVEFLREVLRELRLKHIHIKDIHVIDGRVIIDVWVHSQYGDKEFTVKVIWIVHKIDGRWIFHSVRIE	1.35
QEDEDFVRWALHVFMRYVLTGDEESLERLLDPDVRITVGNKHLHGMENATNELRHMSKQVDHIHDLRFHDVRSINGRIHETGIDDGIINGRRIHRESILVIEKVNGRWHFHSIRVL	0.836
DEDRERSKKEFDTLVKSELTGDEDSYRRMADPDTRLVVGDKEYHGRSAMRYFLRQVDHMEHVIIRRVEYQGDYAHFDITVHGDINGRRDTVHFHLVMYKIDGRWVVHELIIK	1.32
DEIEERTKELMKIDLELLETGDEETLLHLLDPHVKIITWINGRRVQRVGRHIWVHWLRYLGIDHLHVDDVEVQGDKITFDMTIEINGRTHKAVLRSQVVDGKITSLEIEVR	1.63
SEDHEVLRVALELMLHFLTTGDWHLLRKLMDPEVRIRVGEKHIHGMDLILSEWVRVIRELGVKHYHIEVKRDHHQGDKIHLDGTLHIDVNGRQIHIRTEIIAHKVDGKWIHESQVIN	0.988
SEDEEYAKNVDKIMRESLMTGDEDSVERMFDPHAKVIVGDKEYHGREEMVRHIKWFLEHARIRDLRMRDVRIYGDKIEIDVEVDIDVNGKRIQRKEVIYVVKVNGKWIVEYIEIK	1.54
RDEDHELKEMRRMIHEIIMTGDEDKWKKMADPHVQLHIGDKHHHGRDHVSRILTELRVHHFDVEHIHHEFINGRATLRIEGTLHGIINGVEKKVETEIRIIIIKFNGVWYIESQEFHVI	0.492
SEEEELARQVLELWIHWYQTGDEESFRKNIDPHTRFDINGKHLHGREHVSKHLHDRAREMRIHDVFIKDVRLQGEKARMDGVIDGTIGDKRHEFKVEVTVQSINGRIDHLEFRFR	1.18
SEEEKRIRDWARLMEEWRRTGDEEDMSRNLDPNARLILIIDGRNILFHGREEVVRVLEELKERLGFKHEEIKDSRVQGDFLHIHGTLRFDGVETEVRVDTIVINGVVRTLKYHFE	0.467
DHEDHLSELAEHLIHHHWLTGDEHLLERMADPHAQIIIGDKHLHGREEVSRWLIEFMHKFKNMRLQIDHRHLIDGRLHVEVTINIGDKRLKVHRHSIKINGQWHLKSIIIE	1.09
DELEEEVLKALDEWLRSLATGDFDTLTHLMDPNAKTHIGDKHYHGRELLEIWIKRVDHVHRLHFRLRRYRVVGNKVELDGELEIDGEINGRHTNHSEDIRIVLHKIDGRWVVESMIIR	2.53
DEDHKLAEHFIRLLSEKIETGDEDSYKEMVDPNVRIEIGDKEYHGRDEATRVMKEIRERVKNMRIEIHEIHIQGDKVHVRRIDKVGDKEIEKHLIVLKFDGRWVIERERVH	1.19
DEDEEIRTRSLRLLIQLLITGDEEIFKQLFDPHALVIINGRRHHGWTLLEEYWRRLGADVIKSVELENTDDVNGVLILDMRLHMHINGRDDSQRIHIIATKINGKWRNESIVLS	1.22
DEDERELQELREHFIRKFLTGDWEAIANLFDPNTRMNFNGREVHGMEEVMRVFWEIMEKLGVDHQTIHDVKWQGDKLEVHSYLDINGRRHKLRIELQVIDGVIRSVHFEIE	1.21
SEEERHSREMMKLYYKFLETGDEEKFLSLADPDVRIVFNGRDYHGWKDMEKLFHRLLKELGVDHFHIEHVRIDIIDGVAFAFFEVSYNIDGKSLHMHYRFYVKKIDGKWHVRWIHLEVK	1.59
SEDDEDVERAAKLMLHILRTGDERHLHEYLDPNVRSIVNGREFHGRESLLHVMTLQMRELGIDHINVRRVKYDEDEVHFFMNVNINGQHREVIFRAKKINGRWIFHEVELR	1.7
SEEEELAVKMWEIWLRSFLTGDETRLDQMMDPHAKLERIINGKRQHTHGWENVLKELIRLADELRVEHIHIRSEHRQGEKLDVKGEIDGDINGVRRRVEVDIHLVIVDGRIRHVKEVIR	1.12

Sequence	protease stability score
SEEEDESEEMARLFVKANITGDEKFLYHMADPHVRIHIHQGNKYIELHGREKLEYWLKEWLEKFKNIRYTINDMKVVGEKVTIESTLQIGDKRIHMQIVIVVINGRIHKFEFHLH	0.755
DEEEDHERHLVERTIHSLETGDWHETHELLDPHVRIQIVQGDKSLDLHGREAAVKFFLDWLRRVPNMRLEFKRIEDYDGVSHIDGVLRIGDKEMRFEIEIHVFNGVVKRMHIRMH	1.38
DESTKNAQEVIKMIKEIVETGDWRRHHQLVDPNARLHVHINGKDEESHGREEFTRVLMELWKEFGAKHVRFEDFELQGEKIHFHVKINVDGKDVKLLIVALKINGRWLMESVYVEFH	1.19
DEENERVHQALRDWRHIHRTGDEESTRHNMDPNARLDVNGVEVHGMEKVSEMFVELRIEHLHLERVHTQGEKVEVHTHVEVRQGDKRQEVKVIIFYIKINGRWFVERFEIH	0.85
SEDEIAVKKFMQRWIEAVHTGNEDVLTELADPNYRIIFEGRNLHGMDQILHDVRRVDVLEERMHVTSVDSQGDKIHIHGTLQVHFHVGDKQIDIHTQVTWHMLKIDGVWILKKVEIH	1.39
DEDEEEMHHRIEEHFEYLRTGDWKLIRNLVDPSVRVDVDGKEHHGWHEFVRYAVHIRVRRYELKHIRIIDGQVDFQGRIDGEIDGKFRSFNIFIIAQKIDGRWIFKEVRMH	1.68
DEETRHAREMMRIIAESLHTGDEDRLLEMIDPNVRVHVDGQDYHGREQWFQYLHEELRHLRIKHLTVTHHKVYDGRVELHLRVHGEVNGRHTEKTFIVIILKVDGRWKIESLRIE	2.15
TEREEDVKTAMDHLYEIIETGDWKEIHKLIDPNAKVHIDGRNLIGRELMTKIIEEMSEKYKNLRLELTHFEVQGNKVISHTNNRFDGREVRTLMILTKIDGRWIIHSINLE	1.11
DELKEILLRIIEKMLHALLTGNFEELLKNVDPRTRNDINGVDAVGRENIKRVWEEILRRIDHWEEVRIEDFRVQGDKVHIDGRLIMRVDGRREDTTTHLHIIVFNGRVESIKFEIR	1.57
DEEHQHSLARTLATALRTGDPEKMKDLADKDVKVVVGDKHIKGRKDAKKWAKDWRDRYDHAQVDDVNVQGENVRIVMNVEVDGHNVVVVMTAIIDGDQVKNVKVTARNEEQEKKMKK	0.252
DEEDEQAKELSRIMMEVLRTGDEDMFTKLLDPNVRLEIGEKEDHGRERAMHWLIRFLYRIPNARFIWRDVDVHRINGRVLDTSDLQVRINGRDFKTFVITHIVKIDGRWRVTKLEVHIE	1.56
DEEEKDMRHVLKLWVNEFLTGNEKNLSELMDPNVRVDIDGKQLHGRETLSHKIVEDAREARVRLEVESIRVVNGKAHVDVVLRFHQGDKSDHREIRVVFRKVDGRWLLHSLEVH	1.37
SEDEEEVKHMVDEWWKQVLTGDEESLMRLIDPHAKLDFENVTYHGRDELSRYLTKLLREIRFRDIKIHDVRVYDGKVDLHTHMNIIVDGRTHILDTRMIIVKINGRWYIHQVRIK	2.42
DELQKMAKHWIELMIRAQETGDEEELKKYLDPDVRIDVDGRELHGREKADELLKEIRIHEFEIKHMRFQGDKLHLHGTDNQRQGNYEYHVEVTYHLIKINGRWSLREIRVE	0.637
SEELELAKWLLEEWIRAVETGDERTLKELADPDVKMHIGDKNHIGWEEYVRFLRHLRITVRRMEVKHMHVFDGRIHIHGHFDIEINIGDKHLRRHHDVEIILVVVDGKLTSIEIRNH	1.5
DEDRKMAEHWIRIWYHLVETGDEEEINNFADPHTRMEVNGVEFHGRELVKHSNHKLLRDAGVDKIHVEIHEMRVIGNKVEIHGTIRFNGQEYHFILIVLKVNGRWVIESMKHE	0.724
SEEEHMIELIVKWYSRALETGDEEELAEMLDPNTRLDVDGKDIHGRENILKRRKKHLDHLGHERIEIHFDVSHIDYIGDKVIIHVKLILHYNGREIHLDVKMLIVKINGRWRFRHFESK	1.93
SEEERVAKHVSHNLFESLKTGNEEEIEKFFDPNVKVQVGEFEHHGREAVLFWFHEFGIKHIHFHEERVQGDKMHSHLNLIVNGRHISHHIHFHKINGRWHITHQRFH	0.828
SEDEEASKEMLERLIESIKTGDWRHDSNMVDPHARFRVGDKEFHGRDDLEHLVKHLGIKHVEVQHVRTYGNKMELHGWERFNGREVRVELHFVKIDGQWVLTEYRVR	0.616
DEEKEEARRVLEIFIRSTRTGNFKENTEQMDPNVRIDINGVELHGREDAIRLAVEARIHRVEIEHVTTIGDKVEVHGHVDGTFNGQRTRTRLYVVIEKVDGRWLISEYRYH	1.29
DELEENSRLALELWINSFLTGDEDTTEKMADPHVRLIIDGKLFHGREAFSEHMLERSLRADHTEVRLHDRKIVGDKLIIDTRIHSHVNGVDVTLNVLLIMHKYDGRWRIHSVEIH	1.23
SEDVEFIVRFIERFWHLLLTGNEEEFEKLLDPHVRIEINGVNLVGREEVTDWFKHIRIDDMRMIFRHSSVVDGRVNVIGALRRDGHINGQRVTEERDTRLHLYKVNGQWFLTEIELH	1.5
DREERDTREALRILHEISRTGDEELLDRQMDPDVKIDFENHEFHGREEASTLIHEIYQKWGLSNVEMDIKRVRTVGEKVDIDGRLHFNGVTRDIRLINLKVNGKWFIHSIIFR	1.2
DEDEKRSEEFLNEFFHWVHTGDEEKLVKLMDPHMRLDVNGKESVGRENAFEMWHHLRIRRMDVRDIRVELVGDKAIARSDGHIDGEIDGVRIHTRVDLLLISRKVDGVWLFKSVSINSI	2.23
SEDHELVHRFTHFFLRMYFTGDEKEMEDLLDPNTRILWNGKEFHGREEVIEALRYIRSHARIRDFTIHSFEIFDGRAKMDTREHGEIDGRLRTFTLRLHILKVNGRWQFQEIQIE	2.12

Source: the NTF2 design screens of Basanta et al. (2020)
